Source: patent US12564609B2, “Hematopoietic stem cell engraftment with a combination of agents” (The Board of Trustees of the Leland Stanford Junior …, priority 2020, dated 2026)

B1: SCF: recombinant murine stem cell factor (PeproTech), ligand of CD117 (protein, UniProt P20826 26-190, looked up)
Soluble KIT ligand: KEICGNPVTDNVKDITKLVANLPNDYMITLNYVAGMDVLPSHCWLRDMVIQLSLSLTTLLDKFSNISEGLSNYSIIDKLGKIVDDLVLCMEENAPKNIKESPKRPETRSFTPEEFFSIFNRSIDAFKDFMVASDTSDCVLSSTLGPEKDSRVSVTKPFMLPPVAA
B2: JSP191: anti-human CD117 mAb, humanized form of SR1, aglycosylated IgG1 (antibody, chains of the INN, looked up, V domains shown)
VH: QVQLVQSGAEVKKPGASVKVSCKASGYTFTSYNMHWVRQAPGQGLEWMGVIYSGNGDTSYNQKFKGRVTITADKSTSTAYMELSSLRSEDTAVYYCARERDTRFGNWGQGTLVTVSS
VL: DIVMTQSPDSLAVSLGERATINCRASESVDIYGNSFMHWYQQKPGQPPKLLIYLASNLESGVPDRFSGSGSGTDFTLTISSLQAEDVAVYYCQQNNEDPYTFGGGTKVEIK

Assays:
[1] = test system: hematopoietic stem and progenitor cells; assay: In vivo HSC depletion by anti-CD117 mAb in combination with AZA; set-up: species or system C57BL/6 mice; settings: 1 μg exogenous murine SCF for 5 days in mice treated with ACK2 and AZA, day 11
Experimental: A. Schematic of treatment protocol. C57BL/6 mice were injected retroorbital with single dose of ACK2 500 μg 5 days prior start treatment with AZA. AZA was administered in dose 5 mg/kg/d daily for 5 days. Mice were sacrificed 6, 10, 17 and 20 days after first dose of AZA and bone marrow (BM) and spleens were harvested and analyzed for HSC-depletion and depletion of mature myeloid and lymphoid cells. […] Magnification 100 μm. C. Absolute numbers of the different HSPC compartments in the BM and spleen of untreated controls and mice treated with ACK2 in combination with AZA at 6, 10, 17 20 days after start AZA as measured by flow cytometry; Lin^−Sca1^+c-Kit^+(LSK)CD150+CD48^− (LT-HSC), LSKCD150^−CD48^− (ST-HSC), LSKCD150^+CD48^+ (MPP2), LSKCD150^−CD48^+ (MPP3/4). Data represent mean±SD (n=3-4 per group per timepoint). Statistics were calculated Mann-Whitney test (*P<0.05). […] ACK2 and 2B8 were administered as a single dose of 500 μg retroorbital 5 days prior treatment with AZA; AZA was given at dose 5 mg/kg/d for 5 days. BM was analyzed at d6, d10 and d20 after the start of AZA. […] Statistics were calculated by Kruskal-Wallis test (*P<0.05, ***P<0.001). […] Mice were sacrificed at day 11 after first dose of AZA and BM and spleen were analyzed for HSC-depletion. […] Statistics were calculated by Mann-Whitney test (*P<0.05, ns=non-significant). […]

CD117 = target: T1, CD117 (Homo sapiens, UniProt P10721); settings: children with SCID, single agent conditioning prior to allogeneic HCT; cited from earlier work
T1 construct: JSP191, used as single agent conditioning prior to allogeneic HCT in children with SCID; endogenous in cells; host or cells: hematopoietic stem and progenitor cells of human SCID patients (in vivo, clinical trial)
T1 sequence (P10721 26-976): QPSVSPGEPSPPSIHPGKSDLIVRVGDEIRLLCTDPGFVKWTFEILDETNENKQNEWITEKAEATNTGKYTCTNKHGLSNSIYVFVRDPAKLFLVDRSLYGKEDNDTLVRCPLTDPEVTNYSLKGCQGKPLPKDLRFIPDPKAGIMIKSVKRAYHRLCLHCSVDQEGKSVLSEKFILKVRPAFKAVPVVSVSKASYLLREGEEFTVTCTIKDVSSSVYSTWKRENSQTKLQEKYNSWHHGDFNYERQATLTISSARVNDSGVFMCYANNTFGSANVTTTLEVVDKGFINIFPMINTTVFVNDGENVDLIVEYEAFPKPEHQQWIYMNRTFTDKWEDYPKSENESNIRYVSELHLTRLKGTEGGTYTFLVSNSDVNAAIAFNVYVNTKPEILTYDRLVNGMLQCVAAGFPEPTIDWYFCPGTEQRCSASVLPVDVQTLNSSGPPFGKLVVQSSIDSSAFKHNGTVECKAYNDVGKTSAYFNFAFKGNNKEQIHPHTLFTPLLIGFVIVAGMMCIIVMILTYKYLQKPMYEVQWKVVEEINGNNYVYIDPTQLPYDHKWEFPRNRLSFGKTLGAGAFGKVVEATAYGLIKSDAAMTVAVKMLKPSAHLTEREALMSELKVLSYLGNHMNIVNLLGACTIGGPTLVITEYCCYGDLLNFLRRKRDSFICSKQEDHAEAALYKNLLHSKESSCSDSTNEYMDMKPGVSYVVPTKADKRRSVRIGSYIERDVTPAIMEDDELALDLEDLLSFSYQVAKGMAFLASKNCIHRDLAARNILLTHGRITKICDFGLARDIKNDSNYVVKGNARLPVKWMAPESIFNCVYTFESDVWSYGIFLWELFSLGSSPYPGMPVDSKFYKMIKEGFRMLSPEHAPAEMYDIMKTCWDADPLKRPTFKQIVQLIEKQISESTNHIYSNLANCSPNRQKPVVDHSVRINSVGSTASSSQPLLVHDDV

human MDS HSC = settings: MDS-xenografted mice; cited from earlier work
HSC = settings: non-human primates; cited from earlier work

| Molecule | ST-HSC, MPP2 and MPP3/4 in the bone marrow [1] | recovery of LT-HSC in the bone marrow [1] | long-term HSC engraftment (CD117) | tolerability (CD117) | depletion of human MDS HSC (human MDS HSC) | HSC elimination and off-target toxicity (HSC) |
| --- | --- | --- | --- | --- | --- | --- |
| B1 | no changes | faster recovery of LT-HSC |  |  |  |  |
| B2 |  |  | all showed evidence of long-term HSC engraftment | tolerated JSP191 well, without safety issues | depletes human MDS HSC | can eliminate HSC with little to no off-target toxicity |
